Laboratory results reported in publication PMC2650471, “The structure of NMB1585, a MarR-family regulator from Neisseria meningitidis” (Acta Crystallographica Section F: Structural Biology and …, 2009).

Biological target: the molecule itself
Experiment: crystal structure; selenomethionine-labelled NMB1585, 9.7 mg/ml in 20 mM Tris pH 7.5, 200 mM NaCl, 1 mM TCEP; crystals from 0.1 M HEPES pH 7.5, 25% PEG 3350, 0.2 M ammonium chloride; space group P2(1), two subunits per asymmetric unit; 2.1 Å

B1: NMB1585, MarR-family transcription factor from Neisseria meningitidis (natural protein)
chain: MNQLDQLGTRINLICNVFDKWIGQQDLNYNLFAVLYTLATEGSRTQKHIGEKWSLPKQTVSGVCKTLAGQGLIEWQEGEQDRRKRLLSLTETGKAYAAPLTESAQEFSDKVFATFGDKRTTRLFADLDALAEVMEKTISENKK
modifications: selenomethionine-labelled (selenomethionine in place of methionine)
notes: NMB1585, MarR-family regulator, Neisseria meningitidis strain MC58; amplified from genomic DNA with primers that run from the ATG start codon to the stop codon; cloned into pDEST17 with an N-terminal His tag and a 3C protease cleavage site; also called meningococcal MarR; source: tag removed with 3C protease; not shown: His tag, N-terminal, cleaved
Question: For B1, which “stoichiometry N” value is on record?
Answer: The value was 2.
